According to the supplement of paper PMC7877785:
± gives the uncertainty stated by the source.

Test: self-splicing fitness, log relative to wild type (ln ratio); higher = more splicing; Tetrahymena group I intron in knt gene, E. coli kanamycin selection, DiMSum; sequences stand for … in CUCUCU…GGAGGGAAAAGUUAUCAGGCAUGCACCUGGUAGCUAGUCUUUAAACCAAUAGAUUGCAUCGGUUUAAAAGGCAAGACCGUCAAAUUGCGGGAAAGGGGUCAACAGCCGUUCAGUACCAAGUCUCAGGGGAAACUUUGAGAUGGCCUUGCAAAGGGUAUGGUAAUAAGCUGACGGACAUGGUCCUAACCACGCAGCCAAGUCCUAAGUCAACAGAUCUUCUGUUGAUAUGGAUGCAGUUCACAGACUAAAUGUCGGUCGGGGAAGAUGUAUUCUUCUCAUAAGAUAUAGUCGGACCUCUCCUUAAUGGGAGCUAGCGGAUGAAGUGAUGCAACACUGGAGCCGCUGGGAACUAAUUUGUAUGCGAAAGUAUAUUGAUUAGUUUUGGAGUACUCGUGGUCG
Outline: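 A randomised library covering all eight P1ex-region intron nucleotides was built with the intron in the knt kanamycin-resistance gene on pET-22b(+) and held in E. coli BL21(DE3). Cells were grown overnight at 37°C or 30°C on LB agar, with or without 25 μg/mL kanamycin, plus 100 μg/mL carbenicillin, 50 μM IPTG and 0.2% rhamnose, and pooled colonies were amplicon-sequenced on an Illumina HiSeq 2500. DiMSum fitness is the error-weighted combination of wild-type-normalised replicate fold changes, kanamycin versus none.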

Sequence | self-splicing fitness (ln) (30 °C) | self-splicing fitness (ln) (37 °C)
CGACAGCAAUAUUACGCGCU | -3.43 ± 0.12 | -1.91 ± 0.13
CGACAGCAAUAUUACGCUAG | -3.79 ± 0.25 | -2.04 ± 0.16
CGACAGCAAUAUUACGCUCC | -1.44 ± 0.12 | 0.42 ± 0.13
CGACAGCAAUAUUACGCUCG | -3.34 ± 0.37 | -2.18 ± 0.24
CGACAGCAAUAUUACGCUGG | -3.13 ± 0.18 | -2.1 ± 0.17
CGACAGCAAUAUUACGGACU | -0.957 ± 0.072 | -0.875 ± 0.11
CGACAGCAAUAUUACGGUAA | -1.81 ± 0.13 | -1.44 ± 0.11
CGACAGCAAUAUUACGGUCU | -0.546 ± 0.039 | 0.187 ± 0.056
CGACAGCAAUAUUACGGUUU | -1.64 ± 0.058 | -0.714 ± 0.084
CGACAGCAAUAUUACGUAUG | -1.26 ± 0.076 | -1.36 ± 0.1
CGACAGCAAUAUUACGUCGG | -1.83 ± 0.11 | -1.44 ± 0.15
CGACAGCAAUAUUACGUGCU | -4.84 ± 0.36 | -3.46 ± 0.23
CGACAGCAAUAUUACGUUAC | -3.39 ± 0.17 | -2.29 ± 0.2
CGACAGCAAUAUUACGUUGC | -3.9 ± 0.37 | -2.35 ± 0.36
CGACAGCAAUAUUACGUUUU | -3.62 ± 0.15 | -1.54 ± 0.11
CGAGAGCAAUAUUACGAAGU |  | -3.51 ± 0.39
CGAGAGCAAUAUUACGAGAA |  | -1.69 ± 0.43
CGAGAGCAAUAUUACGAGAG | -3.58 ± 0.35 | -0.712 ± 0.31
CGAGAGCAAUAUUACGAGCA | -1.62 ± 0.34 | 
CGAGAGCAAUAUUACGAGGU | -3.16 ± 0.21 | -2.02 ± 0.22
CGAGAGCAAUAUUACGAGUC | -3.99 ± 0.4 | -3.75 ± 0.34
CGAGAGCAAUAUUACGCACC | -1.83 ± 0.28 | -2 ± 0.34

Sequence | self-splicing fitness (ln) (30 °C) | self-splicing fitness (ln) (37 °C)
CGAGAGCAAUAUUACGCGAA | -2.39 ± 0.27 | -1.89 ± 0.37
CGAGAGCAAUAUUACGCUCU | -3.65 ± 0.27 | -2.62 ± 0.3
CGAGAGCAAUAUUACGGACC | -3.73 ± 0.44 | 
CGAGAGCAAUAUUACGGACU | -1.89 ± 0.29 | -2.14 ± 0.38
CGAGAGCAAUAUUACGUAUC | -3.63 ± 0.25 | -1.87 ± 0.38
CGAGAGCAAUAUUACGUCCA |  | -3.02 ± 0.43
CGAGAGCAAUAUUACGUUAC | -4.23 ± 0.28 | -2.29 ± 0.24
CGAUAGCAAUAUUACGAAAC | -1.44 ± 0.32 | 
CGAUAGCAAUAUUACGACAC | -3.23 ± 0.49 | 
CGAUAGCAAUAUUACGACAU | -3.167 ± 0.021 | -1.95 ± 0.035
CGAUAGCAAUAUUACGACCG | -1.44 ± 0.21 | 0.156 ± 0.24
CGAUAGCAAUAUUACGCAAG | -1.97 ± 0.13 | -0.614 ± 0.11
CGAUAGCAAUAUUACGCACA | -0.708 ± 0.088 | -0.0385 ± 0.12
CGAUAGCAAUAUUACGCCAG | -1.35 ± 0.1 | -0.84 ± 0.15
CGAUAGCAAUAUUACGCCCU | -0.983 ± 0.2 | 0.695 ± 0.25
CGAUAGCAAUAUUACGCUGG | -0.585 ± 0.19 | -1.43 ± 0.23
CGAUAGCAAUAUUACGCUUA | -2.23 ± 0.12 | -1.19 ± 0.078
CGAUAGCAAUAUUACGGAAU | -3.23 ± 0.16 | -2.01 ± 0.2
CGAUAGCAAUAUUACGGACU | -1.28 ± 0.095 | -0.496 ± 0.11
CGAUAGCAAUAUUACGGAUU | -2.89 ± 0.11 | -2.61 ± 0.2
CGAUAGCAAUAUUACGGCGC | -1.21 ± 0.15 | -0.875 ± 0.26
CGAUAGCAAUAUUACGGCUA | -3.24 ± 0.49 | -1.08 ± 0.17
